Test results as given in PMC5193401, “Redox Balance in Lactobacillus reuteri DSM20016: Roles of Iron-Dependent Alcohol Dehydrogenases in Glucose/ Glycerol Metabolism” (PLoS ONE, 2016).

Columns and labels:
Assay in all cases: purified protein
Type in all cases: biochemical, Limosilactobacillus reuteri
purified protein [1] = substrate: NC(=O)C1=CN([C@@H]2O[C@H](COP(=O)(O)OP(=O)(O)OC[C@H]3O[C@@H](n4cnc5c(N)ncnc54)[C@H](O)[C@@H]3O)[C@@H](O)[C@H]2O)C=CC1; conditions: 3-HPA reduction (standard 100 mM 3-HPA), 50 mM potassium phosphate pH 7.0, 30°C, pH 7.0, varied: cofactor
purified protein [2] = substrate: NC(=O)c1ccc[n+]([C@@H]2O[C@H](COP(=O)(O)OP(=O)(O)OC[C@H]3O[C@@H](n4cnc5c(N)ncnc54)[C@H](O)[C@@H]3O)[C@@H](O)[C@H]2O)c1; conditions: 1,3-PDO oxidation (standard 500 mM 1,3-PDO), 50 mM Tris-HCl pH 9.0, 30°C, pH 9.0, varied: cofactor
purified protein [3] = substrate: O=CCCO; conditions: 3-HPA reduction (standard 0.2 mM NADH), 50 mM potassium phosphate pH 7.0, 30°C, 3-HPA produced from glycerol by resting cells (equilibrates with hydrate and dimer), pH 7.0

Protein	Km (purified protein [1])	Vmax (purified protein [1])	kcat (purified protein [1])	kcat/Km (purified protein [1])	Km (purified protein [2])	Vmax (purified protein [2])	kcat (purified protein [2])	kcat/Km (purified protein [2])	Km (purified protein [3])	Vmax (purified protein [3])	kcat (purified protein [3])	kcat/Km (purified protein [3])	Km (purified protein [1]; error exceeds value)	Vmax (purified protein [1]; error exceeds value)	kcat (purified protein [1]; error exceeds value)	kcat/Km (purified protein [1]; error exceeds value)
PduQ-His6 (Limosilactobacillus reuteri subsp. reuteri) (protein, full length 373 residues (40361 Da), His6 tag from pET21a kept, E. coli BL21(DE3), Ni-NTA purified) MEKYSMPTRIYSGTDSLKELETLNNERILLVCDSFLPGSDTLKEIESHIKDNNKCEIFSDVVPDPPLDKIMEGVQQFLKLKPTIVIGIGGGSALDTGKGIRFFGEKLGKCKINEYIAIPTTSGTGSEVTNTAVISDTKEHRKIPILEDYLTPDCALLDPKLVMTAPKSVTAYSGMDVLTHALESLVAKDANLFTVALSEEAIDAVIKHLVECYRHGDNVDARKIVHEASNIAGTAFNIAGLGICHSIAHQLGANFHVPHGLANTMLLPYVIAYNAEHSEEALHKFAIAAKKAGIAAPGVGDRLAVKRLIAKIREMARQMNCPMTLQAFGVDPAKAEELADTVVANAKKDATFPGNPVVPSDNDLKMVYEAIIR	40 ± 10 µM	12.6 µmol/min/mg	8.5 ± 0.5 s⁻¹	237000 M⁻¹ s⁻¹	800 ± 100 µM	3.9 µmol/min/mg	2.6 ± 0.1 s⁻¹	3490 M⁻¹ s⁻¹	14500 ± 1700 µM	14.8 µmol/min/mg	9.9 ± 0.6 s⁻¹	640 M⁻¹ s⁻¹	–	–	–	–
ADH7-His6 (Limosilactobacillus reuteri subsp. reuteri) (protein, full length 390 residues (42181 Da), His6 tag from pET21a kept, E. coli BL21(DE3), Ni-NTA purified) MNRQFDFLMPSVNFFGPGVIAKIGDRAKMLNMHKPLIVTTEGLSKIDNGPVKQTVASLEKAGVDYAVFTGAEPNPKIRNVQAGKKMYQDENCDSIITVGGGSAHDCGKGIGIVLTNGDDISKLAGIETLKNPLPPLMAVNTTAGTGSELTRHAVITNEKTHLKFVVVSWRNIPLVSFNDPMLMLDIPKDITAATGCDAFVQAIEPYVSVDHNPITDSQCKEAIQLIQTALPEVVANGHNIEARTKMVEAEMLAGMAFNNANLGYVHAMAHQLGGQYDAPHGVCCALLLTTVEEYNLIACPERFAELAKVMGFDTTGLTLYEAAQKSIDGMREMCRLVGIPSSIKEIGAKPEDFEMMAKNALKDGNAFSNPRKGTVEDIVKLYQKAYDGIY	–	–	–	–	1200 ± 100 µM	4.1 µmol/min/mg	3.2 ± 0.9 s⁻¹	2670 M⁻¹ s⁻¹	9900 ± 1100 µM	29.3 µmol/min/mg	13.2 ± 3 s⁻¹	1330 M⁻¹ s⁻¹	40 ± 120 µM	33 µmol/min/mg	11.3 ± 1.9 s⁻¹	282000 M⁻¹ s⁻¹
